In patent US20040223970A1 (published 2004):

Biological target: T1, SLC15A2 (Solute carrier family 15 (H+/peptide transporter), member 2) (human, UniProt Q16348 1-729)
T1 construct: Expressed from its cDNA on stably transfected 3T12 and Calu6 cells (FACS, saporin killing), and endogenous in human prostate sections (IHC); also called SLC15A2 protein; SLCA15A2
T1 sequence: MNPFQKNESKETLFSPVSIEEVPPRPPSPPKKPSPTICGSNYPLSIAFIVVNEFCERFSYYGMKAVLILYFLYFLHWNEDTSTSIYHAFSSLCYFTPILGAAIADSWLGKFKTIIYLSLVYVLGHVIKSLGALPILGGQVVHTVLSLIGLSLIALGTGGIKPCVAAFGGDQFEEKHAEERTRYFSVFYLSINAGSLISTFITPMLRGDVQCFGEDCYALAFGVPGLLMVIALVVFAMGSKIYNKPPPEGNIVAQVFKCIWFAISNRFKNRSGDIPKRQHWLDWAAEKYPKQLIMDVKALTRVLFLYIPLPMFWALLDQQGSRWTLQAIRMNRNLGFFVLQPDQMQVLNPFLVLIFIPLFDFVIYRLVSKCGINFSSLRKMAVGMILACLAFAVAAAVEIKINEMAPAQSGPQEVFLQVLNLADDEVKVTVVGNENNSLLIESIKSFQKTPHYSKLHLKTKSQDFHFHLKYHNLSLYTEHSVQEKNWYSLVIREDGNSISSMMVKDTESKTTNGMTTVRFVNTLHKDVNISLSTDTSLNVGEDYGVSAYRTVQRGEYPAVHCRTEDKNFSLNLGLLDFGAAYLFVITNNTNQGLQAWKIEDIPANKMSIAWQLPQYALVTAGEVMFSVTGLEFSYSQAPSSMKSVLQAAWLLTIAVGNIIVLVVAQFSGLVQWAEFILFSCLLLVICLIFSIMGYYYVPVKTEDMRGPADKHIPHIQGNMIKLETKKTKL
Assay: FACS, hybridoma supernatant on SLC15A2 expressing cells

B1: PDO5 #811 monoclonal antibody (antibody, V domains shown)
VH: QVQLQQPGAELVRPGASVKLSCKASGYTFTSYWLNWVRQRPGQGLEWIGMIDPSDSETHYNQMFKDKATLTVDKSSSTAYMQLSSLTSEDSAVYYCTSQGVPVPFDYWGQGTTLTVSS
VL: DVVMTQTPLSLPVSLGDQASISCRSSQSLVHSNGNTYLHWYLQKPGQSPKLLIYRVSNRFSGVPDRFSGSGSGTDFTLKISRVEAEDLGVYFCSQSTHVPWTFGGGTKLEIKR
notes: Mouse monoclonal antibody from a hybridoma, used as hybridoma supernatant; also called clone 811
binding result: binds

B2: PDO5 #810 monoclonal antibody (antibody, V domains shown)
VH: EVQLQQSGPELVKPGASMKISCKASGYSFTGYTMNWVKQSHGKNLEWIGLINPYNGGINYNQKFKGKATLTVDKSSSTAYMELLSLTSEDSAVYYCTRRAYYGNYGTMDYWGQGTSVTVSS
VL: ENVLTQSPASMSASPGEKVTMTCSASSSVSYMHWYQQKSTTSPKLWIYDTSNLASGVPGRFSGSGSGNSYSLTISNMEAEDVATYYCFQGSGYPLTFGAGTKLELKR
notes: also called clone 810; Clone 810 supernatant
binding result: binds
